{
  "source": "the DeepSol protein solubility set",
  "data": [
    {"assay": "soluble on expression in E. coli; label from the status in PepcDB or PDB records", "values": [
      {"sequence": "MDKLNKITVPASQKLRQLQKMVHDIKNNEGGIMDKIKKLKVKGPPSVPRRDYALDSPADEEEQWSDDFDSDYENPDEHSDSEMYVMPAEETGDDSYEPPPAEQQTRVVHPALPFTRGEYVDNRSSQRHSPPFSKTLPSKPSWPSAKARLASTLPAPNSLQKPQVPPKPKDLLEDEADYVVPVEDNDENYIHPRESSPPPAEKAPMVNRSTKPNSSSKHMSPPGTVAGRNSGVWDSKSSLPAAPSPLPRAGKKPATPLKTTPVPPLPNASNVCEEKPVPAERHRGSSHRQDTVQSPVFPPTQKPVHQKPVPLPRFPEAGSPAADGPFHSFPFNSTFADQEAELLGKPWYAGACDRKSAEEALHRSNKDGSFLIRKSSGHDSKQPYTLVAFFNKRVYNIPVRFIEATKQYALGKKKNGEEYFGSVVEIVNSHQHNPLVLIDSQNNTKDSTRLKYAVKVS", "soluble on expression in E. coli": "soluble"},
      {"sequence": "MAVAFYIPDQATLLREAEQKEQQILRLRESQWRFLATVVLETLRQYTSCHPKTGRKSGKYRKPSQ", "soluble on expression in E. coli": "not soluble"},
      {"sequence": "MLEEQLYLLACIFASRADTRNIKKLSTRLGSQSKYLEILCVLWPELDDPKNLLFLRELEEEVQSPEGEETTDEDVIVELLESDSSLIPLIESDTTTRSNRYHELQEFISKKLNNKTLENFEEWLRERILICNEMIPETPLLYSVLWETAKSKVLSTKFIGWVEGVLKPLDHLNKRLHLIFKINEWEKMPDSELFKIIFDGVEDMQGYIGIADVIEDELAPTLSYGKKWETFITEFFNKQQFSLKSDTNYQLFIKLYYSLEKGVKDNSEASRKLQSNVVDILFHNSENLFNLSSLTHKLDELWSILSGFPDEITIEEQKTITALEMKQFMEFFIKCSTKFSFKEIFAITQEEESAQLAHFSSLCHEEFNKANEISSFLQAMYETVLDISKDDKIFTRISMDEKLYSILEILLQMNEFAYIEAIIERFDYSNNTQIYELLVKFFWHFFNNASNGLRKEPEMKKASQTLQIIQKHMSQRAGTNLTKLEVLLEISDKLSHYSINLNKSHNGARDTAFKPSNILEYRDCPLDIISNLLELNPRLYKDLPTTKSLLFGIYDSLSINREGQTGKVEVDLMVLHIDYALVNLDFGTAYELGKQVFEICQEAGQHMMKALGDEHWLTFYQMGKFVDPNWVDNEIPTEIIVLQMSILGRLLEVCPLEEVEIVTSQWSTLELELSARDLVKDKYALDGQNDNKSKVGGIAREIFHNVTNF", "soluble on expression in E. coli": "soluble"},
      {"sequence": "STTEVVMENVTAFWEEGFGELFEKAKQNNNNRKTSNGDDSLSFSNFSLLGTPVLKDINFKIERGQLLAVAGSTGAGKTSLLMMIMGELEPSEGKIKHSGRISFCSQNSWIMPGTIKENIIFGVSYDEYRYRSVIKACQLEEDISKFAEKDNIVLGEGGITLSGGQRARISLARAVYKDADLYLLDSPFGYLDVLTEKEIFESCVCKLMANKTRILVTSKMEHLKKADKILILHEGSSYFYGTFSELQNERPDFSSKLMGCDSFDQFSAERRNSILTETLHRFSLEGDAPVSENLYFQGDKDCEMKRTTLDSPLGKLELSGCEQGLHEIKLLGKGTSAADAVEVPAPAAVLGGPEPLMQATAWLNAYFHQPEAIEEFPVPALHHPVFQQESFTRQVLWKLLKVVKFGEVISYQQLAALAGNPAATAAVKTALSGNPVPILIPCHRVVSSSGAVGGYEGGLAVKEWLLAHEGHRLGKPGLG", "soluble on expression in E. coli": "soluble"},
      {"sequence": "MSLSYTEEWVTARARGAYEHGRASFDVRPERTALLVIDMQDEFVRPGWSPYWVPAATRMAPRLRRLIEGCRSAAVPVIWSIFDDTHLGLDRPKALGYLPHADTDWRRPGPAEVWDQMGRRPDEALIRKPSYGAFYDTPLDTMLRNLGRDTVIVTGTLTNYCCGTTARQAYERGYKVVFGADVTATDDESRQEPELAVLRKGFALVLTAEEITNQLAEGHHHHHH", "soluble on expression in E. coli": "soluble"},
      {"sequence": "MKNAFFVTASIACGKSTFIEIANSLGFKSISADKIAHKILDENALELEKIFSPFSLKNLLKKEKKIDRKILGEIVFNNKEAKKILENFTHPKIRAKILEQMQILDKENKAFFVEIPLFFESGAYENLGKVIVIYTPKELSLKRIMQRDKLSLEAAKARLDSQIDIEEKLKKADFIIKNTNSYADFRQECVKVIQEISKGNM", "soluble on expression in E. coli": "not soluble"},
      {"sequence": "MRYITAGESHGPQLTTIIEGVPAGLPLVADDINEELARRQKGYGRGRRMQIETDQVQIVSGVRHGETLGSPIALVVENRDFAHWTKIMGAEPLTEQEEKEMKRKVTKPRPGHADLNGAIKYGHRDMRNVLERSSARETTVRVAAGAVAKKVLAELGITVAGHVIEIGGVEAKETTYRSIEELKSITEASPVRCLDEEAGNQMIKAIDDAKSNGDSIGGIVEVIVEGMPIGVGSYVHYDRKLDAKLAAAIMSINAFKGVEIGIGFEAAHRPGSEVHDEILWNEEHGYTRRTNNAGGLEGGMTTGMPIVVRGVMKPIPTLYKPLQSVDIDTKEPFTASIERSDSCAVPAASVVAEAVVAWELATALIEQFGLDRMDLIRENIEKHNEYARGF", "soluble on expression in E. coli": "not soluble"},
      {"sequence": "MGSDKIHHHHHHMFNAQYFRTFITLVETGSFTHTARKLEMTQPGVSQHIRKLERYLDKSLLYRHGRRFTLTETGRRAYDYAVKLFAEHEQFRHSLDNDSPDTGECRVASPSSVGLMFYPFILGYQQMHPGLTVTYDFAFNAEIVDAVLAGRFDVGIVTDVTKHPDLDFEPWHQEPLCLLVPADFTGTTISELMALGFMNYSDGINNASSLLRRNFAGEFRSMSHFPQQGFSNEVSMVLDAVARGLGFTVVPRSVMETSPWQRQVKELPLAESVYETLYVVTKRGVEMPRRYQQLLGEFRLQRRNVLYGYAEAPPLEDEA", "soluble on expression in E. coli": "not soluble"},
      {"sequence": "SNAMATFMTEDFLLKNDIARTLYHKYAAPMPIYDFHCHLSPQEIADDRRFDNLGQIWLEGDHYKWRALRSAGVDESLITGKETSDYEKYMAWANTVPKTLGNPLYHWTHLELRRPFGITGTLFGPDTAESIWTQCNEKLATPAFSARGIMQQMNVRMVGTTDDPIDSLEYHRQIAADDSIDIEVAPSWRPDKVFKIELDGFVDYLRKLEAAADVSITRFDDLRQALTRRLDHFAACGCRASDHGIETLRFAPVPDDAQLDAILGKRLAGETLSELEIAQFTTAVLVWLGRQYAARGWVMQLHIGAIRNNNTRMFRLLGPDTGFDSIGDNNISWALSRLLDSMDVTNELPKTILYCLNPRDNEVLATMIGNFQGPGIAGKVQFGSGWWFNDQKDGMLRQLEQLSQMGLLSQFVGMLTDSRSFLSYTRHEYFRRILCNLLGQWAQDGEIPDDEAMLSRMVQDICFNNAQRYFTIK", "soluble on expression in E. coli": "soluble"},
      {"sequence": "MGSDKIHHHHHHENLYFQGMNTIDIAKSYITAIQTGDHATLGSIISPDVIWHQPGNHQFSGTHRGMAVVGPMLGKMMEVSNGTFAISRADDYMASGDWVAITLEFSGQANGVTLKQAGVDLLRIEDGKIVEVRLFSADQTQEDAFWGR", "soluble on expression in E. coli": "soluble"},
      {"sequence": "ENSLIGLNDHTLVTEDDGRRWVTHEPALVYFHNKYWFNIIAMIRNDGVSYYCNLASPYVMDKEALKYIDYDLDIKVLTNGTKHLLDADEYIAHGQLWNYP", "soluble on expression in E. coli": "not soluble"},
      {"sequence": "MAATTKKPEIAAQHKPQTAAAAVASPATGAQPGHYVDPAVASAAGVNNVPAQHQAPGSPAQGYGAAADIGGLTTQPTAISAGTSSIYSTATHSGSAAAQGMAAAQGGSAQKIIPAVSSVYSAPIQPSQPQPVAAPVAVPVAAQVPPEQHSENRQPAAVPVPQPEQRAAAQPATNAGATVEGREGEGRSLTLAAFFAGAAKKRLPKMIESGTAGNTEVAALSGAADGSMGIALSGRSMMSEEFDDAHLDEEDDQPNGLMKLASLSGLTRVSPNGLFLQTDHVEVGCFKPELVRMIKDVERHYNSPAIVTSGYRPPKGIRQGSKHYTCDAADIQIKGVSKWELATYLRSLPDRGGVGTYCHTESVHMDTGEARDWNWRCRRTAARK", "soluble on expression in E. coli": "not soluble"},
      {"sequence": "MGSDKIHHHHHHMTTAQHTVEKIGGTSMSNYEAVRDNIIIGKRKKSDLYQRIFVVSAYGGVTNELLEHKKTGEPGVYALFADAESDWAWGDDLTKLIQLLTDINGELFADPMLKQQADQFITDRIEGVRGCLIDLQRLCSYGQFQLEEHLLTVREMLAGIGEAHSAFNTALKLQQEGINARFVDLTGWRDSELLPLDEKLKQAFDAIDLSRELPIVTGYAQCKEGLMRTFDRGYSEMTFSRTAVITNAREAIIHKEYHLSSADPNIVGEDKVVPLGRTNYDVADQLANLGMEAIHPRAGKGLRQNEIPLRVMNTFEPEHTGTLITGDYVSEKPQVEIVAGAKGVFAIEVFDQDMQGEPGSDRRILDVLSRFKVRFMSKDTNANTITHYVDTTLKHVKRVVKALEEEFPNAEISTRKVALVSAIGSDMKVPGILARSVKSLADNDISVLAIHQCMRQVDIQFVVDEDKYDQAIVALHGALIEPHNHEYAIVAASTTAG", "soluble on expression in E. coli": "not soluble"},
      {"sequence": "MRGSHHHHHHTDPALRAIPQISQAPGVVQLVLNFLQELEQQGFTGDTATSYADRLTMSTDNSIYQLLPDAVVFPRSTADVALIARLAAQERYSSLIFTPRGGGTGTNGQALNQGIIVDMSRHMNRIIEINPEEGWVRVEAGVIKDQLNQYLKPFGYFFAPELSTSNRATLGGMINTDASGQGSLVYGKTSDHVLGVRAVLLGGDILDTQPLPVELAETLGKSNTTIGRIYNTVYQRCRQQRQLIIDNFPKLNRFLTGYDLRHVFNDEMTEFDLTRILTGSEGTLAFITEARLDITRLPKVRRLVNVKYDSFDSALRNAPFMVEARALSVETVDSKVLNLAREDIVWHSVSELITDVPDQEMLGLNIVEFAGDDEALIDERVNALCARLDELIASHQAGVIGWQVCRELAGVERIYAMRKKAVGLLGNAKGAAKPIPFAEDTCVPPEHLADYIAEFRALLDSHGLSYGMFGHVDAGVLHVRPALDMCDPQQEILMKQISDDVVALTAKYGGLLWGEHGKGFRAEYSPAFFGEELFAELRKVKAAFDPHNRLNPGKICPPEGLDAPMMKVDAVKRGTFDRQIPIAVRQQWRGAMECNGNGLCFNFDARSPMCPSMKITQNRIHSPKGRATLVREWLRLLADRGVDPLKLEQELPESGVSLRTLIARTRNSWHANKGEYDFSHEVKEAMSGCLACKACSTQCPIKIDVPEFRSRFLQLYHTRYLRPLRDHLVATVESYAPLMARAPKTFNFFINQPLVRKLSEKHIGMVDLPLLSVPSLQQQMVGHRSANMTLEQLESLNAEQKARTVLVVQDPFTSYYDAQVVADFVRLVEKLGFQPVLLPFSPNGKAQHIKGFLNRFAKTAKKTADFLNRMAKLGMPMVGVDPALVLCYRDEYKLALGEERGEFNVLLANEWLASALESQPVATVSGESWYFFGHCTEVTALPGAPAQWAAIFARFGAKLENVSVGCCGMAGTYGHEAKNHENSLGIYELSWHQAMQRLPRNRCLATGYSCRSQVKRVEGTGVRHPVQALLEIIKGLCGR", "soluble on expression in E. coli": "soluble"},
      {"sequence": "KGDVDEKLLDKGIEAVLDQTDYVNGGFGSAPKFHHAKAVELLLTHHFFTGDEEVLKAAEITLDAMARGGIYDHLLGGFFRYSTDAKWVTPHYEKMLYDNAELLYLYSIAYALTGKRLYQKIADGIVEYYRKFGCSNEGGFYASQDADIGELDEGGYYLFSDRELKEILDEREFRIATLYYDIQGERKLPRIFLTEEEISKILGVSVEEVERAVNSARRKMLEFREQREMPYIDTTIYAGWNGLMIEALCMHHKVFGDNWSLEMAEKTANRLLKEFWDGRELLHTHNVEGLSEDYIFFARGLLALFEVTQRHEYLEKCFEIVDSAVEKFWDGEDGGFFD", "soluble on expression in E. coli": "not soluble"},
      {"sequence": "NHVRRVQELSKFFAEEMGLDEDLVHKIYLYAPLHDIGKIKVPKEILNKKGKLTAEEWEIMKKHTIWGGELLSGRKELEVARNIALYHHESYDGTGYPFGLKDDEIPIEAQIVKIVDVYDAL", "soluble on expression in E. coli": "not soluble"}
    ]}
  ]
}
